± gives the standard deviation of the averaged measurements.
Legend:
hTERT-HMEC = test: percentage of EdU-negative (G0-arrested) nuclei per well, 72 h; higher = more G0 arrest; details: reference: sequence is the full UniProt precursor, the tested protein was the secreted form or ectodomain
MCF7 = test: as above; details: reference: sequence is the full UniProt precursor, the tested protein was the secreted form or ectodomain
[1] = protein concentration 0.0272075 µM
[2] = protein concentration 0.272075 µM
[3] = protein concentration 0.03125 µM
[4] = protein concentration 0.3125 µM
[5] = protein concentration 0.0351429 µM
[6] = protein concentration 0.351429 µM
[7] = protein concentration 0.0225 µM
[8] = protein concentration 0.0107825 µM
[9] = protein concentration 0.107825 µM
[10] = protein concentration 0.019925 µM
[11] = protein concentration 0.19925 µM
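Note: secreted proteins added to cultured cells, EdU pulse at the end, nuclei found by Hoechst imaging, EdU status from nuclear versus surrounding ring intensity ratio, PBS as neutral control.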

Sequence: MTATEALLRVLLLLLAFGHSTYGAECFPACNPQNGFCEDDNVCRCQPGWQGPLCDQCVTSPGCLHGLCGEPGQCICTDGWDGELCDRDVRACSSAPCANNRTCVSLDDGLYECSCAPGYSGKDCQKKDGPCVINGSPCQHGGTCVDDEGRASHASCLCPPGFSGNFCEIVANSCTPNPCENDGVCTDIGGDFRCRCPAGFIDKTCSRPVTNCASSPCQNGGTCLQHTQVSYECLCKPEFTGLTCVKKRALSPQQVTRLPSGYGLAYRLTPGVHELPVQQPEHRILKVSMKELNKKTPLLTEGQAICFTILGVLTSLVVLGTVGIVFLNKCETWVSNLRYNHMLRKKKNLLLQYNSGEDLAVNIIFPEKIDMTTFSKEAGDEEI
- percentage of EdU-negative (hTERT-HMEC; [1]): 4.9 ± 0.42%
- percentage of EdU-negative (hTERT-HMEC; [2]): 6.02 ± 1.2%
- percentage of EdU-negative (MCF7; [1]): 27.1 ± 2.7%
- percentage of EdU-negative (MCF7; [2]): 26.7 ± 1.4%

Sequence: MTCKMSQLERNIETIINTFHQYSVKLGHPDTLNQGEFKELVRKDLQNFLKKENKNEKVIEHIMEDLDTNADKQLSFEEFIMLMARLTWASHEKMHEGDEGPGHHHKPGLGEGTP
- percentage of EdU-negative (hTERT-HMEC; [3]): 5.56 ± 0.9%
- percentage of EdU-negative (hTERT-HMEC; [4]): 5.25 ± 0.34%
- percentage of EdU-negative (MCF7; [3]): 26 ± 1.1%
- percentage of EdU-negative (MCF7; [4]): 24.6 ± 0.91%

Sequence: MTDRQTDTAPSPSYHLLPGRRRTVDAAASRGQGPEPAPGGGVEGVGARGVALKLFVQLLGCSRFGGAVVRAGEAEPSGAARSASSGREEPQPEEGEEEEEKEEERGPQWRLGARKPGSWTGEAAVCADSAPAARAPQALARASGRGGRVARRGAEESGPPHSPSRRGSASRAGPGRASETMNFLLSWVHWSLALLLYLHHAKWSQAAPMAEGGGQNHHEVVKFMDVYQRSYCHPIETLVDIFQEYPDEIEYIFKPSCVPLMRCGGCCNDEGLECVPTEESNITMQIMRIKPHQGQHIGEMSFLQHNKCECRPKKDRARQEKKSVRGKGKGQKRKRKKSRYKSWSVPCGPCSERRKHLFVQDPQTCKCSCKNTDSRCKARQLELNERTCRCDKPRR
- percentage of EdU-negative (hTERT-HMEC; [3]): 5.12 ± 1.2%
- percentage of EdU-negative (hTERT-HMEC; [4]): 5.48 ± 0.89%
- percentage of EdU-negative (MCF7; [3]): 27 ± 1.3%
- percentage of EdU-negative (MCF7; [4]): 25.1 ± 0.32%

Sequence: MTGDCMPVLVLMAAVLTVTGAVPVARLRGALPDARGCHIAQFKSLSPQELQAFKRAKDALEESLLLKDCKCRSRLFPRTWDLRQLQVRERPVALEAELALTLKVLEATADTDPALGDVLDQPLHTLHHILSQLRACIQPQPTAGPRTRGRLHHWLHRLQEAPKKESPGCLEASVTFNLFRLLTRDLNCVASGDLCV [Q8IZI9]
- percentage of EdU-negative (hTERT-HMEC; [5]): 6.75 ± 0.89%
- percentage of EdU-negative (hTERT-HMEC; [6]): 10.9 ± 2.5%
- percentage of EdU-negative (MCF7; [5]): 24 ± 2.3%
- percentage of EdU-negative (MCF7; [6]): 28.6 ± 4%

Sequence: MTGLCGYSAPDMRGLRLIMIPVELLLCYLLLHPVDATSYGKQTNVLMHFPLSLESQTPSSDPLSCQFLHPKSLPGFSHMAPLPKFLVSLALRNALEEAGCQADVWALQLQLYRQGGVNATQVLIQHLRGLQKGRSTERNVSVEALASALQLLAREQQSTGRVGRSLPTEDCENEKEQAVHNVVQLLPGVGTFYNLGTALYYATQNCLGKARERGRDGAIDLGYDLLMTMAGMSGGPMGLAISAALKPALRSGVQQLIQYYQDQKDANISQPETTKEGLRAISDVSDLEETTTLASFISEVVSSAPYWGWAIIKSYDLDPGAGSLEI
- percentage of EdU-negative (hTERT-HMEC; [7]): 5.166 ± 0.011%
- percentage of EdU-negative (hTERT-HMEC; protein concentration 0.225 µM): 19.7 ± 0.93%
- percentage of EdU-negative (MCF7; [7]): 26.5 ± 0.29%
- percentage of EdU-negative (MCF7; protein concentration 0.225 µM): 30.7 ± 0.48%

Sequence: MTILFLTMVISYFGCMKAAPMKEANIRGQGGLAYPGVRTHGTLESVNGPKAGSRGLTSLADTFEHVIEELLDEDQKVRPNEENNKDADLYTSRVMLSSQVPLEPPLLFLLEEYKNYLDAANMSMRVRRHSDPARRGELSVCDSISEWVTAADKKTAVDMSGGTVTVLEKVPVSKGQLKQYFYETKCNPMGYTKEGCRGIDKRHWNSQCRTTQSYVRALTMDSKKRIGWRFIRIDTSCVCTLTIKRGR
- percentage of EdU-negative (hTERT-HMEC; [8]): 5.167 ± 0.044%
- percentage of EdU-negative (hTERT-HMEC; [9]): 7.06 ± 0.31%
- percentage of EdU-negative (MCF7; [8]): 26.6 ± 0.45%
- percentage of EdU-negative (MCF7; [9]): 28.7 ± 1.2%

Sequence: MTILGTTFGMVFSLLQVVSGESGYAQNGDLEDAELDDYSFSCYSQLEVNGSQHSLTCAFEDPDVNITNLEFEICGALVEVKCLNFRKLQEIYFIETKKFLLIGKSNICVKVGEKSLTCKKIDLTTIVKPEAPFDLSVVYREGANDFVVTFNTSHLQKKYVKVLMHDVAYRQEKDENKWTHVNLSSTKLTLLQRKLQPAAMYEIKVRSIPDHYFKGFWSEWSPSYYFRTPEINNSSGEMDPILLTISILSFFSVALLVILACVLWKKRIKPIVWPSLPDHKKTLEHLCKKPRKNLNVSFNPESFLDCQIHRVDDIQARDEVEGFLQDTFPQQLEESEKQRLGGDVQSPNCPSEDVVITPESFGRDSSLTCLAGNVSACDAPILSSSRSLDCRESGKNGPHVYQDLLLSLGTTNSTLPPPFSLQSGILTLNPVAQGQPILTSLGSNQEEAYVTMSSFYQNQ
- percentage of EdU-negative (hTERT-HMEC; [10]): 5.3 ± 0.72%
- percentage of EdU-negative (hTERT-HMEC; [11]): 5.96 ± 0.062%
- percentage of EdU-negative (MCF7; [10]): 28.1 ± 1.4%
- percentage of EdU-negative (MCF7; [11]): 27.6 ± 2.4%

Sequence: MTLFPVLLFLVAGLLPSFPANEDKDPAFTALLTTQTQVQREIVNKHNELRRAVSPPARNMLKMEWNKEAAANAQKWANQCNYRHSNPKDRMTSLKCGENLYMSSASSSWSQAIQSWFDEYNDFDFGVGPKTPNAVVGHYTQVVWYSSYLVGCGNAYCPNQKVLKYYYVCQYCPAGNWANRLYVPYEQGAPCASCPDNCDDGLCTNGCKYEDLYSNCKSLKLTLTCKHQLVRDSCKASCNCSNSIY
- percentage of EdU-negative (hTERT-HMEC; [7]): 4.68 ± 0.23%
- percentage of EdU-negative (hTERT-HMEC; protein concentration 0.225 µM): 4.83 ± 0.81%
- percentage of EdU-negative (MCF7; [7]): 24.2 ± 0.4%
- percentage of EdU-negative (MCF7; protein concentration 0.225 µM): 27.5 ± 3%

Sequence: MTLILTSLLFFGLSLGPRTRVQAENLLKPILWAEPGPVITWHNPVTIWCQGTLEAQGYRLDKEGNSMSRHILKTLESENKVKLSIPSMMWEHAGRYHCYYQSPAGWSEPSDPLELVVTAYSRPTLSALPSPVVTSGVNVTLRCASRLGLGRFTLIEEGDHRLSWTLNSHQHNHGKFQALFPMGPLTFSNRGTFRCYGYENNTPYVWSEPSDPLQLLVSGVSRKPSLLTLQGPVVTPGENLTLQCGSDVGYIRYTLYKEGADGLPQRPGRQPQAGLSQANFTLSPVSRSYGGQYRCYGAHNVSSEWSAPSDPLDILIAGQISDRPSLSVQPGPTVTSGEKVTLLCQSWDPMFTFLLTKEGAAHPPLRLRSMYGAHKYQAEFPMSPVTSAHAGTYRCYGSRSSNPYLLSHPSEPLELVVSGATETLNPAQKKSDSKTAPHLQDYTVENLIRMGVAGLVLLFLGILLFEAQHSQRSPPRCSQEANSRKDNAPFRVVEPWEQI
- percentage of EdU-negative (hTERT-HMEC; [7]): 4.68 ± 0.17%
- percentage of EdU-negative (hTERT-HMEC; protein concentration 0.225 µM): 5.06 ± 0.98%
- percentage of EdU-negative (MCF7; [7]): 28.3 ± 0.36%
- percentage of EdU-negative (MCF7; protein concentration 0.225 µM): 29 ± 2.8%

Sequence: MTLLLLPLLLASLLASCSCNKANKHKPWIEAEYQGIVMENDNTVLLNPPLFALDKDAPLRYAGEICGFRLHGSGVPFEAVILDKATGEGLIRAKEPVDCEAQKEHTFTIQAYDCGEGPDGANTKKSHKATVHVRVNDVNEFAPVFVERLYRAAVTEGKLYDRILRVEAIDGDCSPQYSQICYYEILTPNTPFLIDNDGNIENTEKLQYSGERLYKFTVTAYDCGKKRAADDAEVEIQVKPTCKPSWQGWNKRIEYAPGAGSLALFPGIRLETCDEPLWNIQATIELQTSHVAKGCDRDNYSERALRKLCGAATGEVDLLPMPGPNANWTAGLSVHYSQDSSLIYWFNGTQAVQVPLGGPSGLGSGPQDSLSDHFTLSFWMKHGVTPNKGKKEEETIVCNTVQNEDGFSHYSLTVHGCRIAFLYWPLLESARPVKFLWKLEQVCDDEWHHYALNLEFPTVTLYTDGISFDPALIHDNGLIHPPRREPALMIGACWTEEKNKEKEKGDNSTDTTQGDPLSIHHYFHGYLAGFSVRSGRLESREVIECLYACREGLDYRDFESLGKGMKVHVNPSQSLLTLEGDDVETFNHALQHVAYMNTLRFATPGVRPLRLTTAVKCFSEESCVSIPEVEGYVVVLQPDAPQILLSGTAHFARPAVDFEGTNGVPLFPDLQITCSISHQVEAKKDESWQGTVTDTRMSDEIVHNLDGCEISLVGDDLDPERESLLLDTTSLQQRGLELTNTSAYLTIAGVESITVYEEILRQARYRLRHGAALYTRKFRLSCSEMNGRYSSNEFIVEVNVLHSMNRVAHPSHVLSSQQFLHRGHQPPPEMAGHSLASSHRNSMIPSAATLIIVVCVGFLVLMVVLGLVRIHSLHRRVSGAGGPPGASSDPKDPDLFWDDSALTIIVNPMESYQNRQSCVTGAVGGQQEDEDSSDSEVADSPSSDERRIIETPPHRY [Q9BQT9]
- percentage of EdU-negative (hTERT-HMEC; [7]): 4.44 ± 0.21%
- percentage of EdU-negative (hTERT-HMEC; protein concentration 0.225 µM): 5.534 ± 0.019%
- percentage of EdU-negative (MCF7; [7]): 25.2 ± 1.4%
- percentage of EdU-negative (MCF7; protein concentration 0.225 µM): 26.1 ± 0.34%

Sequence: MTLLPGLLFLTWLHTCLAHHDPSLRGHPHSHGTPHCYSAEELPLGQAPPHLLARGAKWGQALPVALVSSLEAASHRGRHERPSATTQCPVLRPEEVLEADTHQRSISPWRYRVDTDEDRYPQKLAFAECLCRGCIDARTGRETAALNSVRLLQSLLVLRRRPCSRDGSGLPTPGAFAFHTEFIHVPVGCTCVLPRSV [Q9P0M4]
- percentage of EdU-negative (hTERT-HMEC; [3]): 5.54 ± 0.085%
- percentage of EdU-negative (hTERT-HMEC; [4]): 5.3 ± 0.055%
- percentage of EdU-negative (MCF7; [3]): 26.7 ± 2.1%
- percentage of EdU-negative (MCF7; [4]): 26.1 ± 1.7%

Source: the supplement of paper PMC11316812
